EC50, half-saturation constant in the fitted one-site equation and Ki data for one substance are collected here from article PMC10609148, “Hexa-Histidine, a Peptide with Versatile Applications in the Study of Amyloid-β(1–42) Molecular Mechanisms of Action” (Molecules, 2023).

For assay [1], the target named is human recombinant cytochrome b5 reductase (Cb5R) with a His6-tag (human). Nature of the assay: other fluorescence titration; FAD fluorescence (ex 460 nm, em 520 nm) of 32 nM Cb5R with a His6-tag titrated with Aβ peptides; 20 mM phosphate, 0.1 mM DTPA, pH 7, 25 °C; one-site fit; apparent constant, in peptide monomers.
Assay [2] shares this target. Kind of assay: inhibition of enzyme activity (NADH-dependent Cb5 reductase activity); 0.11 μg/mL Cb5R with a His6-tag, 5 μM Cb5, 0.25 mM NADH, rising Aβ peptide; absorbance at 550 nm; 20 mM phosphate, 0.1 mM DTPA, pH 7, 25 °C; fit to one inhibitor binding site; in Aβ monomers.

For orientation: EC50 means the concentration giving half of the maximal effect. Broadly, the Ki is a dissociation constant, usually derived from enzyme kinetics or from competition with a known ligand. For the substance Aβ(25–35) (peptide), in assay [1], the EC50 was 75 nM and the half-saturation constant in the fitted one-site equation stood at 99.3. In addition, in assay [2], the Ki is 50 to 60 nM.
